Test [1] deals with tau4R, the microtubule-binding region with R1-R4, labelled with Alexa Fluor 488 (human (by the printed UniProt entry)). The experiment in a line: fluorescence correlation spectroscopy (FCS); ~20 nM fluorescent protein (Alexa 488-labelled tau construct or eGFP) with unlabelled αS seeds at 20, 60 or 100 nM (monomer units); 20°C; 50 mM Na2HPO4, 50 mM NaCl pH 7.0; two-component diffusion fit, medians of type III curves.

Test [2] concerns the target tau_(1N4R), full-length 1N4R tau, labelled with Alexa Fluor 488 (human (by the printed UniProt entry)). Described as above.

With “αS_(1-100) seeds (sonicated fibrils of N-terminally acetylated αS_(1-100)) (from UniProt P37840 1-100) (complex)”, in test [1], the Q (brightness of bound tau relative to monomer tau) at 20 nM αS (1-100) seeds was 1, the Q (brightness of bound tau relative to monomer tau) at 60 nM αS (1-100) seeds stood at 1, the Q (brightness of bound tau relative to monomer tau) at 100 nM αS (1-100) seeds was found to be 1 and the median fB (fraction of tau with τD2) at 20 nM αS (1-100) seeds came to 0.023. In test [1], this substance yielded a median fB (fraction of tau with τD2) at 60 nM αS (1-100) seeds of 0.11, a median fB (fraction of tau with τD2) at 100 nM αS (1-100) seeds of 0.11, a median type III τ (D2app) at 20 nM αS (1-100) seeds of 2.1 ms and a median type III τ (D2app) at 60 nM αS (1-100) seeds of 1.8 ms. In test [1], this substance displayed a median type III τ (D2app) at 100 nM αS (1-100) seeds of 2.8 ms. In test [2], this substance returned a Q (brightness of bound tau relative to monomer tau) at 20 nM αS (1-100) seeds of 2.3, a Q (brightness of bound tau relative to monomer tau) at 60 nM αS (1-100) seeds of 2, a Q (brightness of bound tau relative to monomer tau) at 100 nM αS (1-100) seeds of 2.7 and a median fB (fraction of tau with τD2) at 20 nM αS (1-100) seeds of 0.055. In test [2], this substance returned a median fB (fraction of tau with τD2) at 60 nM αS (1-100) seeds of 0.053, a median fB (fraction of tau with τD2) at 100 nM αS (1-100) seeds of 0.16, a median type III τ (D2app) at 20 nM αS (1-100) seeds of 2.8 ms and a median type III τ (D2app) at 60 nM αS (1-100) seeds of 2.3 ms. Moreover, the median type III τ (D2app) at 100 nM αS (1-100) seeds in test [2] was determined as 2.2 ms.

For the origin of these results see paper PMC11386428.
